According to patent US6890721:

B1: granzyme B-processed Yama (activated) (protein)
chain: SGISLDNSYKMDYPEMGLCIIINNKNFHKSTGMTSRSGTDVDAANLRETFRNLKYEVRNKNDLTREEIVELMRDVSKEDHSKRSSFVCVLLSHGEEGIIFGTNGPVDLKKITNFFRGDRCRSLTGKPKLFIIQACRGTELDCGIETDSGVDDDMACHKIPVEADFLYAYSTAPGYYSWRNSKDGSWFIQSLCAMLKQYADKLEFMHILTRVNRKVATEFESFSFDATFHAKKQIPCIVSMLTKELYFYH
B2: granzyme B-processed ICE LAP-6 (activated) (protein)
chain: IGSGGFGDVGALESLRGNADLAYILSMEPCGHCLIINNVNFCRESGLRTRTGSNIDCEKLRRRFSSLHFMVEVKGDLTAKKMVLALLELARQDHGALDCCVVVILSHGCQASHLQFPGAVYGTDGCPVSVEKIVNIFNGTSCPSLGGKPKLFFIQACGGEQKDHGFEVASTSPEDESPGSNPEPDATPFQEGLRTFDQLDAISSLPTPSDIFVSYSTFPGFVSWRDPKSGSWYVETLDDIFEQWAHSEDLQSLLLRVANAVSVKGIYKQMPGCFNFLRKKLFFKTSHHHHHH

Target: poly (ADP-ribose) polymerase (PARP)

| Protein | PARP cleavage (immunoblot with anti-PARP monoclonal antibody C-2-10) |
| --- | --- |
| B1 | Both granzyme B-processed Yama and ICE LAP-6 were active as determined by their ability to cleave PARP |
| B2 | Both granzyme B-processed Yama and ICE LAP-6 were active as determined by their ability to cleave PARP |
